Measurements reported in PMC2898303 (The Journal of Biological Chemistry, 2010).

T1: His6-S-Tag-Gfd1 wild type (S. cerevisiae, UniProt Q04839 1-188)
T1 sequence (looked up): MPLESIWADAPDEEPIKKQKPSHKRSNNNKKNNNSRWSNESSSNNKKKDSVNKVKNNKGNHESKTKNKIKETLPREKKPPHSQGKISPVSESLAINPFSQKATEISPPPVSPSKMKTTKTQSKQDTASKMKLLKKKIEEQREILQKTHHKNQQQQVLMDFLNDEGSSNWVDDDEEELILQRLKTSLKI

T2: Nab2-N (residues 1–105 of Nab2), untagged (S. cerevisiae, UniProt P32505 1-105)
T2 sequence (looked up): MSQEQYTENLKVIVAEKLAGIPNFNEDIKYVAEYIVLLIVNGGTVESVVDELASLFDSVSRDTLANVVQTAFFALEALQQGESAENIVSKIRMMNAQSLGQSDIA


Assays:
[1] = biological target: T1, His6-S-Tag-Gfd1 wild type; experiment: pull-down
[2] = biological target: T2, Nab2-N (residues 1–105 of Nab2), …; experiment: crystal structure

binding result [1]	binding result [2]	Binder
binds	–	GST-Nab2-N-WT (residues 1–97) (domain or fragment, S. cerevisiae, UniProt P32505 1-97, looked up) MSQEQYTENLKVIVAEKLAGIPNFNEDIKYVAEYIVLLIVNGGTVESVVDELASLFDSVSRDTLANVVQTAFFALEALQQGESAENIVSKIRMMNAQ
binds	–	GST-Nab2-N-L55W (residues 1–97) (domain or fragment, S. cerevisiae, UniProt P32505 1-97, looked up) MSQEQYTENLKVIVAEKLAGIPNFNEDIKYVAEYIVLLIVNGGTVESVVDELASWFDSVSRDTLANVVQTAFFALEALQQGESAENIVSKIRMMNAQ
binds	–	GST-Nab2-N-F56D (residues 1–97) (domain or fragment, S. cerevisiae, UniProt P32505 1-97, looked up) MSQEQYTENLKVIVAEKLAGIPNFNEDIKYVAEYIVLLIVNGGTVESVVDELASLDDSVSRDTLANVVQTAFFALEALQQGESAENIVSKIRMMNAQ
–	binds	SKQDTASKMKLLKKKIEEQREILQKTHHKN (peptide, UniProt Q04839 122-151, looked up) [Gfd1 122–151 (fragment of Gfd1 released from GST-TEV-Gfd1 122–151 by TEV protease)]
